The record followed here is patent US5972656.

Changes are numbered by the printed parent chain.

Assay [1] deals with BSA-glutathione (bovine) (UniProt P02769). The experiment in a line: ELISA, culture supernatant on BSA-GSH plates without mercury. A general note: An ELISA detects its analyte on a solid surface through an enzyme-linked reagent.
The target is the same in assay [2]. The experiment in a line: ELISA, culture fluid on glutathione-BSA (column Glutathione).
Assay [3] has the same target. The experiment in a line: ELISA, subclone culture fluid on BSA-glutathione, average of triplicates.

B1: monoclonal antibody 23F8 (antibody, V domains shown)
VH: SGPELVKTGASVKISCKASGYSFTGYYMHWVKQSHGKSLEWIGYISCYNGATSYNQKFKGKATFTVDTSSSTAYMQFNSLTSEDSAVYYCARSGIYDVTTTLTTGAKAPLSQSP
VL: DIQMTQSPSSLSASLGGKVTITCKASQDINKYIAWYQHKPGKGPRLLIHYTSTLQPGIPSRFSGSGSGRDYSFSISNPEPEDIATYYCLQYDNSLFTFGSGTKLEIK
B1 yielded an absorbance at 405 nm (absorbance at 405 nm) with BSA-glutathione (bovine) [1] of 0.168.

B2: monoclonal antibody 5G4 (antibody, V domains shown)
VH: SVPARLKPGASVRISCKASAYSFTGYFMNWMKQSHGKTLEWIGRINPYNGDTFYNQKFKSKATVTVDKSSSTAHMELLSLTSEDSAVYYCGTQPLDYWGQGTTLTVSS
VL: DIQMTQSPSSLSASLGERVTLTCRASQDIGSSLNWLQLKPDGTIKRLIYATSGLDSGVPKRFSGSRSGSDYSLTINSPESEDFVDYYCLQCSNSPYTFGGGTKLEIK
Take B2: the absorbance at 405 nm (absorbance at 405 nm) with BSA-glutathione (bovine) [1] was 0.028.

B3: monoclonal antibody 4A10 (antibody, V domains shown)
VH: EVQLQQSGPELVKPGALVKISCKASGYTFTSYDINWVKQRPGQGLEWIGWIYPGDGSTKYNEKFKGKATLTADKSSSTAYMQLSSLTSENSAVYFCARCGYAMDYWGQGTSVTVSS
VL: DVLMTQTPLSLPVSLGDQASISCRSSQSIVHSNGNTYLEWYLQKPGQSPKLLIYKVSNRFSGVPDRFSGSGSGTDFTLKISRAEAEDLGVYYCFQGSHVRYTFGGGTKLEIK
Turning to B3, the absorbance at 405 nm (absorbance at 405 nm) with BSA-glutathione (bovine) [2] was 0.4; with BSA-glutathione (bovine) [3] it was 0.322; with BSA-glutathione (bovine) [1] it was 0.078.

B4: monoclonal antibody 2D5 (antibody, V domains shown)
VH: SGGGSVKPGGSLKLSCAASGFTFSSCAMSWVRQTPEKRLEWVATISSGGSYTYYPDSVKGRFTIFRHNAENTLYLQMSSLRSEDTAIYYCVRQDGYYGNYVWFAYWGQGTLVTVSA
VL: ELVMTQSPASLSASVGETVTITCRASENIYGYLAWYQQKQGKSPLPRVYNAKTLAEDVSSRVSGSGSGTQFSLKIRTSQPEDFGTYYCQHHYGTPYTFGGGTKLEIK
In the assay with BSA-glutathione (bovine) [1], B4 yielded an absorbance at 405 nm (absorbance at 405 nm) of 0.09.

B5: monoclonal antibody 5B6 (antibody, V domains shown)
VH: B4 VH with C26R, F65S, L75F, D94T, V101E, T110L
VL: B2 VL with K107N
For the molecule B5, the absorbance at 405 nm (absorbance at 405 nm) with BSA-glutathione (bovine) [1] is 0.019.

B6: monoclonal antibody 1C11 (antibody, V domains shown)
VH: SGAELVKPGASVKLSCKTSGYTVTSYWMGWVKQRPGQGLEWIGNIYPDSGTTNYNEKFKNKATLTVDTFSSTVYMQLSSLTSEDSAVYYCARGVYSYYSYDVYAMDYWGQGTSVTVSS
VL: DLVLTQSPPSLAVSLGQRSTISCRSSQSIVHSNGNTYLHWYQQNPGQPPKLLIKYASNLESGVPARFSGSGSGTDFTLNIHPAEVEDSATYFCQHSWEIPPTFGGGTKLEIK
As for B6, the absorbance at 405 nm (absorbance at 405 nm) with BSA-glutathione (bovine) [1] was 0.094.
